Reference: the supplement of paper PMC6757056
± gives the standard deviation of the averaged measurements.

B1: library; a variant is named by its letters at N, in order (parent)
chain: GCUGUCACCGAGAAACUGUGAAGUAUAUCUUAAACCUGGGCACUUAAAAGAUAUAUGGAGUUAGUAGUGCAACCUGCUCGGUCUGAUGAGUCCNNNNNNGGACGAAACAGC

Columns and labels:
cyclic di-GMP [1] = variants of: B1; experiment: normalized RNA/DNA level without ligand (relative to sTRSVctl = 100) (log10 (% of sTRSVctl)); HEK293T; ligand: cyclic di-GMP (c-di-GMP-II aptamer); higher = less ribozyme self-cleavage, higher mRNA level; settings: reporter: mCherry (pCS4076), ligand present: no
How it was run: (§1)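 Ribozyme switch library plasmids with mCherry reporters (eGFP in certain ligand experiments) went into HEK293T cells at 4 µg per 6-well well. Where ligand was used, it was applied 1 h before transfection, and total RNA was extracted with EDTA 72 h later for reverse transcription, amplification, barcoding and sequencing. RNA level is the RNA-to-DNA read ratio normalized to a spiked-in non-cleaving sequence or to the leading sequences, then scaled and log-transformed. Scaling was ×100 with log10, the leading set comprised 25 sequences, and the cutoff was ≥100 DNA reads.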

cyclic di-GMP [2] = variants of: B1; experiment: normalized RNA/DNA level with ligand (relative to sTRSVctl = 100) (log10 (% of sTRSVctl)); HEK293T; ligand: cyclic di-GMP (c-di-GMP-II aptamer); ligand concentration (+) RNA-Seq: 1 mM; higher = less ribozyme self-cleavage, higher mRNA level; settings: reporter: mCherry (pCS4076), ligand present: yes
How it was run: as §1

CUGAGA
normalized RNA/DNA level without ligand (log10) (cyclic di-GMP [1]): 1.46 ± 0.079 | normalized RNA/DNA level with ligand (log10) (cyclic di-GMP [2]): 1.69 ± 0.11

AAGUGG
normalized RNA/DNA level without ligand (log10) (cyclic di-GMP [1]): 1.68 ± 0.033 | normalized RNA/DNA level with ligand (log10) (cyclic di-GMP [2]): 1.78 ± 0.12

UACGCA
normalized RNA/DNA level without ligand (log10) (cyclic di-GMP [1]): 1.78 ± 0.018 | normalized RNA/DNA level with ligand (log10) (cyclic di-GMP [2]): 1.89 ± 0.067

GGUGCA
normalized RNA/DNA level without ligand (log10) (cyclic di-GMP [1]): 1.78 ± 0.12 | normalized RNA/DNA level with ligand (log10) (cyclic di-GMP [2]): 1.91 ± 0.13

GAUAGA
normalized RNA/DNA level without ligand (log10) (cyclic di-GMP [1]): 1.46 ± 0.11 | normalized RNA/DNA level with ligand (log10) (cyclic di-GMP [2]): 1.64 ± 0.094

GGCUGU
normalized RNA/DNA level without ligand (log10) (cyclic di-GMP [1]): 1.68 ± 0.05 | normalized RNA/DNA level with ligand (log10) (cyclic di-GMP [2]): 1.79 ± 0.18

CUCUGC
normalized RNA/DNA level without ligand (log10) (cyclic di-GMP [1]): 1.7905 ± 0.00063 | normalized RNA/DNA level with ligand (log10) (cyclic di-GMP [2]): 1.83 ± 0.13

AGUGGC
normalized RNA/DNA level without ligand (log10) (cyclic di-GMP [1]): 1.6 ± 0.079 | normalized RNA/DNA level with ligand (log10) (cyclic di-GMP [2]): 1.79 ± 0.11

CUCGUA
normalized RNA/DNA level without ligand (log10) (cyclic di-GMP [1]): 1.6 ± 0.025 | normalized RNA/DNA level with ligand (log10) (cyclic di-GMP [2]): 1.76 ± 0.086

UGGAAA
normalized RNA/DNA level without ligand (log10) (cyclic di-GMP [1]): 1.626 ± 0.0078 | normalized RNA/DNA level with ligand (log10) (cyclic di-GMP [2]): 1.83 ± 0.059

GCAUCA
normalized RNA/DNA level without ligand (log10) (cyclic di-GMP [1]): 1.61 ± 0.11 | normalized RNA/DNA level with ligand (log10) (cyclic di-GMP [2]): 1.77 ± 0.12

CAACCA
normalized RNA/DNA level without ligand (log10) (cyclic di-GMP [1]): 1.54 ± 0.084 | normalized RNA/DNA level with ligand (log10) (cyclic di-GMP [2]): 1.71 ± 0.1

GUUGUC
normalized RNA/DNA level without ligand (log10) (cyclic di-GMP [1]): 1.53 ± 0.11 | normalized RNA/DNA level with ligand (log10) (cyclic di-GMP [2]): 1.73 ± 0.087

GAUGAG
normalized RNA/DNA level without ligand (log10) (cyclic di-GMP [1]): 1.55 ± 0.067 | normalized RNA/DNA level with ligand (log10) (cyclic di-GMP [2]): 1.71 ± 0.059

AUCUAG
normalized RNA/DNA level without ligand (log10) (cyclic di-GMP [1]): 1.62 ± 0.032 | normalized RNA/DNA level with ligand (log10) (cyclic di-GMP [2]): 1.8 ± 0.092

CUCGGU
normalized RNA/DNA level without ligand (log10) (cyclic di-GMP [1]): 1.79 ± 0.021 | normalized RNA/DNA level with ligand (log10) (cyclic di-GMP [2]): 1.89 ± 0.16

AGACCU
normalized RNA/DNA level without ligand (log10) (cyclic di-GMP [1]): 1.76 ± 0.057 | normalized RNA/DNA level with ligand (log10) (cyclic di-GMP [2]): 1.895 ± 0.0095

CAACGA
normalized RNA/DNA level without ligand (log10) (cyclic di-GMP [1]): 1.56 ± 0.063 | normalized RNA/DNA level with ligand (log10) (cyclic di-GMP [2]): 1.73 ± 0.11

AACGUC
normalized RNA/DNA level without ligand (log10) (cyclic di-GMP [1]): 1.66 ± 0.024 | normalized RNA/DNA level with ligand (log10) (cyclic di-GMP [2]): 1.78 ± 0.11

UUUUUG
normalized RNA/DNA level without ligand (log10) (cyclic di-GMP [1]): 1.77 ± 0.028 | normalized RNA/DNA level with ligand (log10) (cyclic di-GMP [2]): 1.87 ± 0.088

AGUCCU
normalized RNA/DNA level without ligand (log10) (cyclic di-GMP [1]): 1.77 ± 0.023 | normalized RNA/DNA level with ligand (log10) (cyclic di-GMP [2]): 1.87 ± 0.086

CCCACA
normalized RNA/DNA level without ligand (log10) (cyclic di-GMP [1]): 1.57 ± 0.098 | normalized RNA/DNA level with ligand (log10) (cyclic di-GMP [2]): 1.74 ± 0.05

CUAACC
normalized RNA/DNA level without ligand (log10) (cyclic di-GMP [1]): 1.8 ± 0.038 | normalized RNA/DNA level with ligand (log10) (cyclic di-GMP [2]): 1.84 ± 0.12

UUUUGA
normalized RNA/DNA level without ligand (log10) (cyclic di-GMP [1]): 1.74 ± 0.062 | normalized RNA/DNA level with ligand (log10) (cyclic di-GMP [2]): 1.89 ± 0.2

GUCUGG
normalized RNA/DNA level without ligand (log10) (cyclic di-GMP [1]): 1.68 ± 0.036 | normalized RNA/DNA level with ligand (log10) (cyclic di-GMP [2]): 1.86 ± 0.049

UGGGAG
normalized RNA/DNA level without ligand (log10) (cyclic di-GMP [1]): 1.673 ± 0.012 | normalized RNA/DNA level with ligand (log10) (cyclic di-GMP [2]): 1.79 ± 0.14

AACUAC
normalized RNA/DNA level without ligand (log10) (cyclic di-GMP [1]): 1.7 ± 0.019 | normalized RNA/DNA level with ligand (log10) (cyclic di-GMP [2]): 1.84 ± 0.12

CCAGAG
normalized RNA/DNA level without ligand (log10) (cyclic di-GMP [1]): 1.42 ± 0.049 | normalized RNA/DNA level with ligand (log10) (cyclic di-GMP [2]): 1.62 ± 0.17

UGCCUU
normalized RNA/DNA level without ligand (log10) (cyclic di-GMP [1]): 1.725 ± 0.0025 | normalized RNA/DNA level with ligand (log10) (cyclic di-GMP [2]): 1.87 ± 0.082
